Data from PMC5805785, “Site-specific phosphorylation of TRANSPARENT TESTA GLABRA1 mediates carbon partitioning in Arabidopsis seeds” (Nature Communications, 2018).
Positions count from the first letter of the chain named.

Key:
[1] = target: T1, MBP-TT2 (Arabidopsis thaliana) (UniProt Q9FJA2); assay: competition; conditions: LightShift Chemiluminescent EMSA kit (Pierce); buffer, salt, pH and temperature not stated
T1 sequence: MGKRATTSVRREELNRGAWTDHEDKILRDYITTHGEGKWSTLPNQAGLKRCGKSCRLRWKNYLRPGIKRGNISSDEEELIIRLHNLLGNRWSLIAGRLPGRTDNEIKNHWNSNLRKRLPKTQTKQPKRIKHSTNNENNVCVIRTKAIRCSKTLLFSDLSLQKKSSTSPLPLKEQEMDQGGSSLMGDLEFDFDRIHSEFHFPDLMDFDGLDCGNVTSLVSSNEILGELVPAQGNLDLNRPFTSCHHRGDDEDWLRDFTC

[2] = target: T2, MBP-TT2;MBP-TTG1 (Arabidopsis thaliana;Arabidopsis thaliana) (UniProt Q9FJA2+Q9XGN1); assay: EMSA; conditions: LightShift Chemiluminescent EMSA kit (Pierce); buffer, salt, pH and temperature not stated
T2 sequence 1: T1 sequence
T2 sequence 2: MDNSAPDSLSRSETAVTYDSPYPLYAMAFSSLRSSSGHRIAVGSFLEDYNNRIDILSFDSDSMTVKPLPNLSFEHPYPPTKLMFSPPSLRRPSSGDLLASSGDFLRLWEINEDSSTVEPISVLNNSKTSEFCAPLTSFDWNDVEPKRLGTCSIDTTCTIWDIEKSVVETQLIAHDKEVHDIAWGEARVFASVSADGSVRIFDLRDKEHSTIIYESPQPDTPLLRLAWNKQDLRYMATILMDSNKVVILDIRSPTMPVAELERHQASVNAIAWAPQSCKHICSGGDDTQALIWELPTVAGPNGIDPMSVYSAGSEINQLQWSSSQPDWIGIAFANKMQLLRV

[3] = target: T1, MBP-TT2 (Arabidopsis thaliana); assay: EMSA; conditions: LightShift Chemiluminescent EMSA kit (Pierce); buffer, salt, pH and temperature not stated
[4] = target: T3, MBP-TTG1 (TRANSPARENT TESTA GLABRA1) (Arabidopsis thaliana, UniProt Q9XGN1 1-341); assay: pull-down; MBP, MBP-TTG1, MBP-TTG1^S215E and MBP-TTG1^S215A on amylose beads as baits; TT2-His as prey, detected with anti-His; conditions: both partners purified
T3 construct: TRANSPARENT TESTA GLABRA1 (TTG1), Arabidopsis thaliana, WD40 repeat protein; cDNA cloned into pMAL-c2x; also called recombinant MBP-TTG1; source: E. coli Rossetta (DE3), IPTG-induced, soluble fusion protein on amylose resin (methods); called 'in vitro-translated' in the results for the GST pull-down
T3 sequence (looked up): T2 sequence 2

MBP-TTG1^S215A = target: T4, MBP-TTG1^S215A (Arabidopsis thaliana, UniProt Q9XGN1 1-341, S215A); assay: as above; conditions: both partners purified
T4 construct: TRANSPARENT TESTA GLABRA1 (TTG1), Arabidopsis thaliana; mutated cDNA cloned into pMAL-c2x; source: E. coli Rossetta (DE3), soluble fusion protein immobilized on amylose beads
T4 sequence (looked up): T2 sequence 2 with S215A

[5] = target: T3, MBP-TTG1 (TRANSPARENT TESTA GLABRA1); assay: native gel or EMSA; EMSA supershift: recombinant MBP-TT2 and MBP-TTG1 incubated together with the biotinylated native GL2 probe (AC-rich motif); conditions: both partners purified

For “ATAATATATAAGGAAGAAGGAGTGCGAGGAGAAGAGGGAAGAGATCATAATTAAGCAAAGAAGCTAGCTAGGGACAGGATTTGTATGTCAATGGCCGTCGACATGTCTTCCAAACAACCCACCAAAGACTTTTTCTCCTCTCCAGCCCTCTCTCTATCTCTCGTATACTACTCTCTCTTTTCTACATACATGTACTTGCTAGCTCTCACATAAACATATATT (double strand) [GL2 native competitor]”, the binding [1] was “binds”.

With “ATAATATATAAGGAAGAAGGAGTGCGAGGAGAAGAGGGAAGAGATCATAATTAAGCAAAGAAGCTAGCTAGGGACAGGATTTGTATGTCAATGGCCGTCGACATGTCTTCCAAACAACCCACCAAAGACTTTTTCTCCTCTCCAGCCCTCTCTCTATCTCTCGTATACTACTCTCTCTTTTCTACATACATGTACTTGCTAGCTCTCACATAAACATATATT (double strand) [GL2 native probe]” the binding [2] was “binds” and the binding [3] was “binds”.

For “ATAATATATAAGGAAGAAGGAGTGCGAGGAGAAGAGGGAAGAGATCATAATTAAGCAAAGAAGCTAGCTAGGGACAGGATTTGTATGTCAATGGCCGTCGACATGTCTTCAAAAAAAAAAAAAAAAGACTTTTTCTCCTCTCCAGCCCTCTCTCTATCTCTCGTATACTACTCTCTCTTTTCTACATACATGTACTTGCTAGCTCTCACATAAACATATATT (double strand) [GL2 mutated probe]”, the binding [3] was “no binding”.

B1: TT2-His (natural protein, Arabidopsis thaliana, UniProt Q9FJA2 1-258, looked up)
chain: T1 sequence
notes: TRANSPARENT TESTA2 (TT2; MYB123), Arabidopsis thaliana; cDNA cloned into pET28a; also called MYB123; source: E. coli Rossetta (DE3), IPTG-induced, soluble fusion protein
B1: binds [4]; binds (MBP-TTG1^S215A).

B2: MBP-TT2 (natural protein, Arabidopsis thaliana, UniProt Q9FJA2 1-258, looked up)
chain: T1 sequence
notes: TRANSPARENT TESTA2 (TT2; MYB123), Arabidopsis thaliana; cDNA cloned into pMAL-c2x; also called MYB123; source: E. coli Rossetta (DE3), recombinant protein produced as for the pull-down assay
B2: binds [5].
